Biological target: Human IgG
Assay: plate coated with human IgG, luminescence (Imax) after CaCl2

concentration at which the luminescence intensity reached a plateau: 10 ng/mL
Substance: Protein A-AQ fusion protein (from UniProt P02976 37-307; P07164 9-196)
